Test system: T1, pp1-18 peptide (cell-permeable peptide, RRRRRRRRRRR-G-MEGISNFKTPSKLSEKKK)
T1 sequence: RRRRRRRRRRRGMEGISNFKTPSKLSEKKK

CDK1-cyclin B1 recombinant protein complex (New England Biolabs)
phosphorylation of recombinant PBK/TOPK by CDK1-cyclin B1 (in vitro kinase assay with peptide added): the phosphorylation of recombinant PBK/TOPK protein by CDK1-cyclin B1 recombinant proteins was diminished in dose-dependent manner by addition of the pp 1-18 peptide

Source: US20110135647
